Assay results from a protein production outcome set (Wang et al. 2014).

Assay: label from the status in PepcDB records

Sequence	protein production
MKFLVGYSNDSSGKDALKLGVALAEMTQGKLIVCHIVAKTWHNIALAKFDEDYDQFLCDEAQKALDDAKLAVPSHIEARYIARTALSISEGLKQTAKELSVDCMVISGARIAIKGQFFSGTVADELLNQLSLPVALAPKGFAKNQGFTSPLTRLSCAVSGSDQSCNLAISAGEWAEIFNVPLRFVTFAVRDRDITPTAAGFDAENMVINEWREQIEAEYAQATQHWESDVPISLEIGDGPTWKESIQSIDWQASELLIVGTTTSGIFKQVLVGKNAEKIIRYASVPRLVLPRSTD	failed
METYPITVGGVTRHVPLIEPLPGRRIPLVEFLGDPEFTRAAAEALRPLVPKEAEILFTTETSPIPLTHVLAEALGLPYVVARRRRRPYMEDPIIQEVQTLTLGVGEVLWLDRRFAEKLLNQRVVLVSDVVASGETMRAMEKMVLRAGGHVVARLAVFRQGTPGLAVDTVAELPVL	not failed
MAQNNENALPDITKSITLEAPIQKVWETVSTSEGIAKWFMPNDFQLKEGQEFHLQSPFGPSPCKVLAVQAPTELSFEWDTEGWVVTFQLEDLGEKTGFTLIHSGWKEPNEVIGKANEKSSVVRGKMDGGWTGIVNERLRKAVEELEHHHHHH	not failed
TPLAEGAKAIETLCKLIKKGHIVAVKGIGGFHLVCDATKNRVVMELRERKKRPTKPFAVMFRSVFEIGKCTELSPIEEATILSPERPIVLISKRRPHRLEKFLISCDGVAPRVGTMGVFLPYSPLHSLLMEQAKIPLVFTSANLSGEPLIRDFKELCEKLSGVFDYYLDHDREILNPCDDSVVTIQNNKFQV	failed
MLRFAVLGHPVAHSLSPAMHAFALESLGLEGSYEAWDTPLEALPGRLKEVRRAFRGVNLTLPLKEAALAHLDWVSPEAQRIGAVNTVLQVEGRLFGFNTDAPGFLEALKAGGIPLKGPALVLGAGGAGRAVAFALREAGLEVWVWNRTPQRALALAEEFGLRAVPLEKAREARLLVNATRVGLEDPSASPLPAELFPEEGAAVDLVYRPLWTRFLREAKAKGLKVQTGLPMLAWQGALAFRLWTGLLPDPSGMEEAARRALGV	not failed
MKEIESKTSAKIITDTFVRIFLIFSLLITIIVSGIVAFTSLQIRKSEGAALLNSVQTAATNGQVNWDEFKLDSEKDEKATFVRLTSPSGQREESQGTTNFLKSRKSWGNFSLLRDDIFLYSSKTSKNGTKAELWLNINVVVKSMIRAILVIIAVMIFLFFLALILIQKAARTISQPLTDIVVATDGKDVKQVPVSKNPLEVHQLSQSFNRLLNRLNQKIENEQQFVSDASHELRTPVAAIRGHVNLLKRRWHEHPEIVDESLSYIDEESMRMKVLIENLLTISRGNHLEIKKERINLSKFTDKVVSEIQLALRQKINFDIQTDLFVSMDKMALYKIIIIFLENAGKYSPSNSEITINITLENHQVDFQVADEGIGVPEEEKDNIFERFYRIDKSRSSEIPGTGLGLAIAKEYAQLNDAKVFVSNNSPKGSTFHLLMESIEN	failed
MSSIGYSRRFRLFRRGEVTVLEVMAGQKAYPDTLRYLLVPEGRPQPSGFVGYTVIRTPVKRIAVFSTTHIGFLDMLGRSDGIIGVSRPEFVNTPAVRSRIRSGAIKAIGMPFSPDVEALLNLEPDLVIAPALPAARKTDYQALVQAGIPVLVVAEWLEPSPLGRAEWIKLFGALVGKEKLARERFAAIESSYLKIAALSRNLPNRPTVLTGLPVKDAWYVPTGGSYVAAMLRDAGASYHWRDLPGTGSVPLTIEAVWPVALEAEYWLNTGTVSTLDELLAVDSRFGQMRSVRERRVWNNNRLVNAAGGNAYWESGVVRPDLILKDLVMILHPGLLRAHGIGEGELTFFQEVKLEHHHHHH	not failed
MSEMAASSAISLLDIKLRRFGVGASNHELRLTKWFKGDQAGAPTRRFTCFADMLAPIRRSEKSEERRFDQKMSAHGAGIKTSSSAVPFASPKSRFLSKQEKFYPRCTPRLTGPQSRDTPPKRDTGIANEKDWGIDLLNENVNEAGTNEDGSSWFRESGHDLGDNGYRCRWSRMGGRSHDGSSEWTETWWEKSDWTGYKELGVEKSGKNSEGDSWWETWQEVLHQDEWSNLARIERSAQKQAKSGTENAGWYEKWWEKYDAKGWTEKGAHKYGRLNEQSWWEKWGEHYDGRGSVLKWTDKWAETELGTKWGDKWEEKFFSGIGSRQGETWHVSPNSDRWSRTWGEEHFGNGKVHKYGKSTTGESWDIVVDEETYYEAEPHYGWADVVGDSTQLLSIQPRERPPGVYPNLEFGPSPPPEPDLPLTNHNDITSVCLAY	failed
MDFSSNVAAQLNAGTILPEGIVIVTLLLVLIVDLIGGRKVALALPYLAIAGLLVSVGLLVTSWSMADPIGFIGAFNGDNLSIIFRAIIALSTVVTILMSVRYVQQTGTSLAEFIAILLTATLGGMFLSAANELVMVFISLEMLSISSYLMTGYMKRDPRSNEAALKYLLIGASSSAIFLYGLSLLYGLSGGETQLVLIAEKLVNADTVGQSLGLAIALVFVIAGIAFKISAVPFHQWTPDVYEGSPTPVVAFLSVGSKAAGFAVAIRLLVTAFGGITDEWHVIFTALAVLSMVLGNVVALAQTSMKRMLAYSSIGQAGFVMIGLVAGSEDGYASMVFYMLIYLFMNLGAFSCIILFTLRTGSDQISDYAGLYHKDPLLTLGLSICLLSLGGIPPLAGFFGKIYIFWAGWQSGLYGLVLLGLVTSVVSIYYYIRVVKMMVVKEPQEMSEVIKNYPAIKWNLPGMRPLQVGIVATLVATSLAGILANPLFNLATDSVVSTKMLQTALQQTGETPAIAISHDLP	failed
MGNKLVNSLSKITTSSKEVTSDILVMNFTIVNAFLIGNKTQWVLVDTALENSADFILKAAEKRFGKGSVPKAIILTHGHFDHVGSVIKLSKLWSVPVYIHELEMPYVTGKKDYPLADPTVDEGMVAKISQTFPHTSIDISSNVSPLPSDSSIPYMPDWKWIHTPGHTDGHISLFREKDHVLIVGDAFCTTKQESLLSVITHHEEISGPPKYLTTDWAKAKNSIICLKNLKPLIAIPSHGEELSGEELTKHLELLINNFDEIAKPAEGQFVTNK	failed
MQECTNVQVSKMMLSAPQHLVGGSVSEITPNRDLSLDSMHTSQVKQNIRALWTALVLLSVFFCIELSAGIWSHSLSLLADAEHILSDVAALGLALIASWLSQSISQRTIFGRYKLEVLAALINGISLACIACWIVREALVRLQSPTTEILGVPMLTTALIGVGVNSFNALCLHKCSHKDLNIRGALLHLIADLASSVGAVLAAIAIIWLNWTWADGVISLVVAMLIASFAAYLLIQSVQCLRGQIADISDIACMCPPQSEVCVDRQQAEKLLFPTLEELVQ	failed
MQVSQANLNLNFDANSLQRGKRYFSQGRVQNLVRETEGMSIQVLRAEVSGSQRQLYITEVRFDRYLPGKINTFCSCPVGFRCKHAAAVILQANHEAGLSAEKYESEADTRYKYPTAETWLEQAASVFSSIDNASNPECLAYLLHIEPHRSQQTLSVNKVRRRKSGEYSRGSKTTVWSRTNLEYDRPKYLRESDIAPLTWLNALPTAFRVSPVLEGTTGAYFIESALKTRRFFLESTQNPPLQLGETLESGFEWMQLPDKQHWQLVSKALPSHIRLLNTSPAYYLDEKELLIGRVENSLDARTTALLQQCPPLAESQLQQALPDLAPILEKAGAVLPESFQVPSMVQAAPQPILQLYSLQHPAPGTLPLLMARLMFSYEGHRVAFSEQEPRVLVDGNNGPLLVIRDEDAEIEWLHRDLPDFKMAGTMTDHLEADMVNALPYGSFLDFTLPTRNQWLDFIAFDLPRLDAGGWQIEMDESFDIPVIEIDQLHGSLKPDEESPGWFDVEVGIDYNGTQIDLIPLLQQALVYLDLNNDSDDALPETLWLHNGDALIRVVSDRIRPLVRTLLSLLGKERGGKLRLPKLDAAQVMGDLAADWQCSAELRNLSEKLTSFQALNHVPVPSEVRAELRHYQQDGLNWLMFLREFGLGGVLADDMGLGKTLQTLACIQAEKTAGRLTAPALVVCPTTLIANWEAEAEKFTPGLKRLVIHGQRRKPFFDMVAEADLVITSYPLLHRDLEQHQNQSYSLAFFDEAQHLKNPATVTSKAARRLPAENRIALTGTPMENHLGELWALFDLILPGYLADQKIFREHYRKPIEEQGNQSRYAELSRRVRPFMLRRTKDQVTPELPEKTEIVRHVELNRQQKDLYETIRATMDKRIRKLLAEKGAARSQIEILDALLKLRQICCHPALLNPEETAGSAKLDSLMEMLEQLLDEGRKVIIFSQFTSMLALIETTLKAAGIGYEKLTGQTRDRATPVKRFQNGESPVFLISLKAGGTGLNLTAADCVIHYDPWWNPAAEQQATDRAWRIGQDKPVFVYRLITEGTVEERIQALQARKSQLADGLYGKADTFSSAITADDISVLFEK	failed
MGQPQQPEGAGAEEAAAGTDSGTDTGTGAGAGAATGASATRPPLRVGMVGYAFMGAAHSQGWRTAGRVFDLPLNPVLAAICGRDADAVRLAADRHGWASTETDWRTLVERDDIDLVDICTPGDSHSEIALAALAAGKHVLCEKPLANTVEEAQAMTRAAEEAAARGQLAMVGFNYRRVPATALARRMVAEGRVGRLRHLRVTYLQDWLVDPKAPLTWRLRKELAGSGALGDLGAHIVDLAQYLSGERIAGVSALTETFVRERPLPAGAPRGLSAGSADGVTGQVTVDDAAVFTGRLTSGALVSFEATRYATGRKNALRIELNGERGSLAFDLERLNELSYHDGTEPGEHAGFRRILVTEPEHPYLEAWWPPGHGLGYEHTFVHQARDLVHAVAEGRGPEPSFADGLQVQRVLAAVEESAEKNSVYTPITP	failed
MFSFPAVLEAGIVFLYIAVALFLATLGIWIARTFLMPNVIKEDWNSLNRISFTTVIPLSASVMNAAIIAYYGFNVHYEYLYLVNYFIDFTSILFLSFFLGYKLYTKSPVHTNEISYGLLIPPVAISSNVLLGSSLMRTQYFNSIIFLTVIGVGIALFLFLFIGIMTFASYIRDQKANAPSPMLVLPVGVSSIIVINILAIATAKSVFQIPMADALTVSFMLWAFELWNFVVAMMISLKRVFREPATISIWAYTFPMAIFSVSSLDLRSIIGRYGYITASNIVYYIGIGAWVILIVAWVYAVMSTAIFLSHIKMIAYPG	failed
MSGNVGAGRHADELAIRTVQYRWLEATRKFDRQVLSSLMTDDVVFLTPGRLPFGKEEFLAACEQNDQRVIIEASATFEEIVIVEPMAYTRTHLHIKVTPRSGGAVRELAGHAMSIFRRSMFGEWQLARDANLVVPI	not failed
MFTLALPTPPPLAQARGSGLSAAFAAGAVIPVGDTPGGIALTPTGTRAYVANHGSNTVSVLDTVTDTVIDTIATGGGPNAVAFSPDGTRAYVTVADDGLVSVIDTATNTIVTDIAVGAGATGVAVTPDGSRVYVTLQSSDTVGVIDTATNTVTASIPAAGTPLGLVITPDGTRAYVACLFANAVRVIDTATNTVIATIPVGPVPILLAVSPGGTHVYVTNVGNSTVSVIDTATSAVIATVGVSAQPRFAAVSPDGFHVYVANSGPDTVSVIDTATQTVVENIGVGDGPTGIALLPDGTRAYVTNAVAGTVGVMATTVIPDQGSTAGGTTVTLTGHHLANATAVHFGTAQAVITANTATSMTVTAPAGSGAVPVTVTTAGGTGTLGHFYYVPVPALSGINPAAGPVAGSDDEIVLTGRHLAGAIDVYFGTTRAVIQTVSDNQVTVRAAGAPAPGGTAVTVITAGGSAGGLSYTYLDPSTVTGVSPDSGPTTGGTEVTITGTGLAGTEQVTFNGIPAAFTVVSDSTLTATTPPSGAAGPVGVTVTGPGGAPAGTFTYVSEPDI	failed
MTDATAEQSVTADADDKPEPYNGLPGAFPYAFRATDSLLFKAYVPVALLLSVAITLVFSFGLITQLAETGSVRGGTFTFSRSFFLFVGLLLVAPLLAPVLSVARRHRRTASSVAYDRALALSAFLFIGSIYLALLTSAPAELREPTQSAVVGFFYSLPPIAGVVPPMLATLGIYLTHRLLK	failed
MEKENDENITKKLSLKKVLFNSLFVSLSILVLGFVINYKYAVGYIFILVIHELGHYIIAKFLKVSVAFGGFTPVGAYIIHENPKNCKENALIAMGGPLFGGLLGLIYYIVYYVTGNNTFLVLTFTSIILNLGNLIPVSPLDGGQIAEAISPTLCYIGFPVLIYLFILLNSLKSKILLLFIIVAGIYQTYYFTMKYKTDPYYKLDKPSKIKFIFIYSILVLSLTISAIYLYNSFDFKDIFHSIARFK	failed
